Target: T1, cytoplasmic domain of Bacillus subtilis anti-sigma RsiW (residues 1-80), reduced, zinc-bound (B. subtilis 168 strain, UniProt Q45588 1-80)
T1 construct: RsiW, anti-sigma-W factor of Bacillus subtilis 168, cytoplasmic domain, residues 1-80; Coordinates one zinc ion through C3, H30, C34 and C37 (CHCC motif); The Hisx6-thioredoxin tag was removed with TEV protease after the first IMAC step; also called RsiW_(cyto); RsiWcyto; not shown: His6, N-terminal, cleaved; thioredoxin, N-terminal, cleaved
T1 sequence (looked up): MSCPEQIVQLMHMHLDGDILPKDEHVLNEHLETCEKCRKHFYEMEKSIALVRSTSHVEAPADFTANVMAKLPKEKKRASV
Assay: SEC-MALS; purified SigW/RsiWcyto complex injected into a Superdex200 analytical column with inline DAWN HELEOS MALLS and Optilab rEX refractive index detectors; molecular weight of the complex approximately 31.5 kDa
Conditions: both partners purified

- stoichiometry N: 1 SigW per RsiWcyto
B1: Bacillus subtilis SigW (residues 1-187) (natural protein, B. subtilis 168 strain, UniProt Q45585 1-187, looked up)
chain: MEMMIKKRIKQVKKGDQDAFADIVDIYKDKIYQLCYRMLGNVHEAEDIAQEAFIRAYVNIDSFDINRKFSTWLYRIATNLTIDRIRKKKPDYYLDAEVAGTEGLTMYSQIVADGVLPEDAVVSLELSNTIQQKILKLPDKYRTVIVLKYIDELSLIEIGEILNIPVGTVKTRIHRGREALRKQLRDL
notes: SigW, ECF (group IV) sigma factor of Bacillus subtilis 168, residues 1-187; domains sigmaW2 (residues 3-95) and sigmaW4 (residues 125-187) joined by a disordered loop (96-125); No tag on SigW itself (cloned in MCS2 of pET-DUET1); it is purified through the His-tagged RsiWcyto; A selenomethionine-labelled complex (E. coli B834 (DE3)) was used for phasing only; also called sigma factor SigW; ECF …
